Experimental data reported in publication PMC10745693.
Read-outs that look alike come from different tables or passages of the source.

Legend:
[1] = molecular target: light-harvesting complex II (LHCII) trimer (spinach)
[2] = molecular target: light-harvesting complex II (LHCII) trimer (spinach); remark: listed apart in the source

pairwise LHCII-LHCII interaction energy J [1]: -5.4 kBT | pairwise LHCII-LHCII interaction energy J [2]: -7.2 kBT
Substance: light-harvesting complex II (LHCII) trimer
